According to publication PMC2768541 (Journal of molecular biology, 2009):
One block for each molecule: values may come before it.

Columns and labels:
S100A1 = target: T1, S100A1 (Rattus norvegicus, UniProt P35467); details: read-out: KD of S100A1 for RyRP12; ref [36]; [47]; cited from earlier work
T1 sequence (P35467 2-94 limits assumed): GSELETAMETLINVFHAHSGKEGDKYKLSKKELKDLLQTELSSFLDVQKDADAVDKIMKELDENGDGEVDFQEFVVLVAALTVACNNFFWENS

[1] = target: TRTK12 (CapZ peptide) TRTK12 (Homo sapiens) (UniProt P52907); details: cited from earlier work
RyRP12 RyRP12 = RyRP12 RyRP12 (UniProt P21817); details: cited from earlier work
[2] = target: T2, TRTK12 (CapZ alpha subunit peptide) (not fully specified)
T2 chain: Ac-TRTKIDWNKILS-NH2

[3] = target: T3, TAMRA-TRTK12 (CapZ alpha subunit peptide) (not fully specified); test: fluorescence anisotropy
T3 chain: {TAMRA}-TRTKIDWNKILS-NH2

Molecule: KKAVWHKLLSKQ [RyRP12]
Kd (S100A1): 8 µM

Molecule: S100B (from UniProt P04631)
Kd [1]: 7 µM

Molecule: S100A1 (from UniProt P35467)
Kd (RyRP12 RyRP12): 8 µM

Kd [2]: 23 µM
Kd [3]: 1 µM
B1: S100A1 (protein)
chain: MGSELETAMETLINVFHAHSGKEGDKYKLSKKELKDLLQTELSSFLDVQKDADAVDKIMKELDENGDGEVDFQEFVVLVAALTVACNNFFWENS
